Test system: CCC(=O)O
Assay: purified protein
Source text: hydroxamate assay of propionate kinase activity on NMB0435 (AckA1)

NMB0435 (AckA1) (Neisseria meningitidis MC58)
Km: 16.3 ± 2.2 mM
